Measured values reported in the supplement of paper PMC11246515.
± gives the standard deviation of the averaged measurements.

Assay: total protein half-life in vivo (active degradation + dilution); higher = more stable protein
[1] = wild type E. coli NCM3722, growth: C-lim chemostat, doubling time 3 h
[2] = wild type E. coli NCM3722, growth: C-lim chemostat, doubling time 6 h
[3] = wild type E. coli NCM3722, growth: C-lim chemostat, doubling time 12 h
[4] = E. coli NCM3722 delta-clpP delta-lon delta-hslV, growth: N-lim chemostat, doubling time 6 h
[5] = E. coli NCM3722 delta-clpP, growth: N-lim chemostat, doubling time 6 h
[6] = E. coli NCM3722 delta-hslV, growth: N-lim chemostat, doubling time 6 h
[7] = E. coli NCM3722 delta-lon, growth: N-lim chemostat, doubling time 6 h
[8] = E. coli NCM3722 delta-smpB, growth: N-lim chemostat, doubling time 6 h
[9] = wild type E. coli NCM3722, growth: N-lim chemostat, doubling time 6 h
[10] = wild type E. coli NCM3722, growth: N-lim chemostat, doubling time 12 h
[11] = wild type E. coli NCM3722, growth: P-lim chemostat, doubling time 6 h
[12] = wild type E. coli NCM3722, growth: P-lim chemostat, doubling time 12 h

| Sequence | total protein half-life in vivo [1] | total protein half-life in vivo [2] | total protein half-life in vivo [3] | total protein half-life in vivo [4] | total protein half-life in vivo [5] | total protein half-life in vivo [6] | total protein half-life in vivo [7] | total protein half-life in vivo [8] | total protein half-life in vivo [9] | total protein half-life in vivo [10] | total protein half-life in vivo [11] | total protein half-life in vivo [12] |
| --- | --- | --- | --- | --- | --- | --- | --- | --- | --- | --- | --- | --- |
| MNTFSQVWVFSDTPSRLPELMNGAQALANQINTFVLNDADGAQAIQLGANHVWKLNGKPDDRMIEDYAGVMADTIRQHGADGLVLLPNTRRGKLLAAKLGYRLKAAVSNDASTVSVQDGKATVKHMVYGGLAIGEERIATPYAVLTISSGTFDAAQPDASRTGETHTVEWQAPAVAITRTATQARQSNSVDLDKARLVVSVGRGIGSKENIALAEQLCKAIGAELACSRPVAENEKWMEHERYVGISNLMLKPELYLAVGISGQIQHMVGANASQTIFAINKDKNAPIFQYADYGIVGDAVKILPALTAALAR | 2.87 ± 0.035 h | 5.9 h | 8.89 ± 0.4 h |  |  |  |  |  |  |  |  |  |
| MSELNEKLATAWEGFTKGDWQNEVNVRDFIQKNYTPYEGDESFLAGATEATTTLWDKVMEGVKLENRTHAPVDFDTAVASTITSHDAGYINKQLEKIVGLQTEAPLKRALIPFGGIKMIEGSCKAYNRELDPMIKKIFTEYRKTHNQGVFDVYTPDILRCRKSGVLTGLPDAYGRGRIIGDYRRVALYGIDYLMKDKLAQFTSLQADLENGVNLEQTIRLREEIAEQHRALGQMKEMAAKYGYDISGPATNAQEAIQWTYFGYLAAVKSQNGAAMSFGRTSTFLDVYIERDLKAGKITEQEAQEMVDHLVMKLRMVRFLRTPEYDELFSGDPIWATESIGGMGLDGRTLVTKNSFRFLNTLYTMGPSPEPNMTILWSEKLPLNFKKFAAKVSIDTSSLQYENDDLMRPDFNNDDYAIACCVSPMIVGKQMQFFGARANLAKTMLYAINGGVDEKLKMQVGPKSEPIKGDVLNYDEVMERMDHFMDWLAKQYITALNIIHYMHDKYSYEASLMALHDRDVIRTMACGIAGLSVAADSLSAIKYAKVKPIRDEDGLAIDFEIEGEYPQFGNNDPRVDDLAVDLVERFMKKIQKLHTYRDAIPTQSVLTITSNVVYGKKTGNTPDGRRAGAPFGPGANPMHGRDQKGAVASLTSVAKLPFAYAKDGISYTFSIVPNALGKDDEVRKTNLAGLMDGYFHHEASIEGGQHLNVNVMNREMLLDAMENPEKYPQLTIRVSGYAVRFNSLTKEQQQDVITRTFTQSM | 2 ± 0.078 h | 3.04 ± 0.058 h | 4.18 ± 0.3 h | 4.8 ± 0.094 h | 3.3 ± 0.053 h | 2.98 ± 0.12 h | 3.71 ± 0.17 h | 2.58 ± 0.067 h | 3.04 ± 0.21 h | 4.452 ± 0.017 h | 3.36 ± 0.26 h | 6.13 ± 0.27 h |
| MNAWEVNFDGLVGLTHHYAGLSFGNEASTRHRFQVSNPRLAAKQGLLKMKALADAGFPQAVIPPHERPFIPVLRQLGFSGSDEQVLEKVARQAPHWLSSVSSASPMWVANAATIAPSADTLDGKVHLTVANLNNKFHRSLEAPVTESLLKAIFNDEEKFSVHSALPQVALLGDEGAANHNRLGGHYGEPGMQLFVYGREEGNDTRPSRYPARQTREASEAVARLNQVNPQQVIFAQQNPDVIDQGVFHNDVIAVSNRQVLFCHQQAFARQSQLLANLRARVNGFMAIEVPATQVSVSDTVSTYLFNSQLLSRDDGSMMLVLPQECREHAGVWGYLNELLAADNPISELKVFDLRESMANGGGPACLRLRVVLTEEERRAVNPAVMMNDTLFNALNDWVDRYYRDRLTAADLADPQLLREGREALDVLSQLLNLGSVYPFQREGGGNG | 3.06 ± 0.31 h | 5.17 ± 0.51 h | 8.64 ± 0.32 h | 4.1 ± 0.25 h | 2.42 ± 0.32 h | 2.8 ± 0.29 h | 2.88 ± 0.035 h | 2.75 ± 0.14 h | 2.74 ± 0.35 h | 3.749 ± 0.0089 h | 5.69 ± 0.31 h | 9.79 ± 1.5 h |
| MSRRNTDAITIHSILDWIEDNLESPLSLEKVSERSGYSKWHLQRMFKKETGHSLGQYIRSRKMTEIAQKLKESNEPILYLAERYGFESQQTLTRTFKNYFDVPPHKYRMTNMQGESRFLHPLNHYNS [P0ACH5] |  |  |  | 3.42 ± 0.064 h |  |  | > 8 h |  |  |  |  |  |
| MLLSIITVAFRNLEGIVKTHASLAHLAQVEDISFEWIVVDGGSNDGTREYLENLNGIFNLRFVSEPDNGIYDAMNKGIAMAQGKFALFLNSGDIFHQNAANFVRKLKMQKDNVMITGDALLDFGDGHKIKRSAKPGWYIYHSLPASHQAIFFPVSGLKKWRYDLEYKVSSDYALAAKMYKAGYAFKKLNGLVSEFSMGGVSTTNNMELCADAKKVQRQILHVPGFWAELSWHLRQRTTSKTKALYNKV |  |  |  | 4.85 ± 0.28 h |  |  | 1.5 ± 0.23 h | 0.818 ± 0.0095 h |  |  |  |  |
| MNSLTTHYRRSQLIALPVPGGKAKVEYCYAVNVPGDREIVTHSFAEWAVGDFNRQKETVLCDKLTAGSKITTECPSESFVGSRKHNGLSTSAKVMSMNASARSNSFVVNSGK |  |  |  | 1.84 h |  |  |  |  |  |  |  |  |
| MVISIRRSRHEEGEELVAIWCRSVDATHDFLSAEYRTELEDLVRSFLPEAPLWVAVNERDQPVGFMLLSGQHMDALFIDPDVRGCGVGRVLVEHALSMAPELTTNVNEQNEQAVGFYKKVGFKVTGRSEVDDLGKPYPLLNLAYVGA |  |  |  | 3.78 h |  |  |  |  |  |  |  |  |
| MSRNTEATDDVKTWTGGPLNYKEGFFTQLATDELAKGINEEVVRAISAKRNEPEWMLEFRLNAYRAWLEMEEPHWLKAHYDKLNYQDYSYYSAPSCGNCDDTCASEPGAVQQTGANAFLSKEVEAAFEQLGVPVREGKEVAVDAIFDSVSVATTYREKLAEQGIIFCSFGEAIHDHPELVRKYLGTVVPGNDNFFAALNAAVASDGTFIYVPKGVRCPMELSTYFRINAEKTGQFERTILVADEDSYVSYIEGCSAPVRDSYQLHAAVVEVIIHKNAEVKYSTVQNWFPGDNNTGGILNFVTKRALCEGENSKMSWTQSETGSAITWKYPSCILRGDNSIGEFYSVALTSGHQQADTGTKMIHIGKNTKSTIISKGISAGHSQNSYRGLVKIMPTATNARNFTQCDSMLIGANCGAHTFPYVECRNNSAQLEHEATTSRIGEDQLFYCLQRGISEEDAISMIVNGFCKDVFSELPLEFAVEAQKLLAISLEHSVG | 1.85 ± 0.4 h | 3.12 ± 0.02 h | 4.99 ± 0.85 h | 4.92 ± 0.3 h | 2.89 ± 0.11 h | 1.46 ± 0.085 h | 1.98 ± 0.2 h | 1.58 ± 0.085 h | 1.51 ± 0.56 h | 2.29 h | 3.223 ± 0.00026 h | 5.113 ± 0.048 h |
| MMQTVLAKIVADKAIWVEARKQQQPLASFQNEVQPSTRHFYDALQGARTAFILECKKASPSKGVIRDDFDPARIAAIYKHYASAISVLTDEKYFQGSFNFLPIVSQIAPQPILCKDFIIDPYQIYLARYYQADACLLMLSVLDDDQYRQLAAVAHSLEMGVLTEVSNEEEQERAIALGAKVVGINNRDLRDLSIDLNRTRELAPKLGHNVTVISESGINTYAQVRELSHFANGFLIGSALMAHDDLHAAVRRVLLGENKVCGLTRGQDAKAAYDAGAIYGGLIFVATSPRCVNVEQAQEVMAAAPLQYVGVFRNHDIADVVDKAKVLSLAAVQLHGNEEQLYIDTLREALPAHVAIWKALSVGETLPAREFQHVDKYVLDNGQGGSGQRFDWSLLNGQSLGNVLLAGGLGADNCVEAAQTGCAGLDFNSAVESQPGIKDARLLASVFQTLRAY | 2.91 ± 0.1 h | 4.97 ± 0.14 h | 7.713 ± 0.011 h | 4.8 ± 0.34 h | 4.62 ± 1 h | 4.15 ± 0.2 h | 5.01 ± 0.64 h | 4.1 ± 0.18 h | 4 ± 0.086 h | 6.392 ± 0.053 h | 4.9 ± 0.078 h | 9.51 ± 0.49 h |
| MSDIALTVSILALVAVVGLFIGNVKFRGIGLGIGGVLFGGIIVGHFVSQAGMTLSSDMLHVIQEFGLILFVYTIGIQVGPGFFASLRVSGLRLNLFAVLIVIIGGLVTAILHKLFDIPLPVVLGIFSGAVTNTPALGAGQQILRDLGTPMEMVDQMGMSYAMAYPFGICGILFTMWMLRVIFRVNVETEAQQHESSRTNGGALIKTINIRVENPNLHDLAIKDVPILNGDKIICSRLKREETLKVPSPDTIIQLGDLLHLVGQPADLHNAQLVIGQEVDTSLSTKGTDLRVERVVVTNENVLGKRIRDLHFKERYDVVISRLNRAGVELVASGDISLQFGDILNLVGRPSAIDAVANVLGNAQQKLQQVQMLPVFIGIGLGVLLGSIPVFVPGFPAALKLGLAGGPLIMALILGRIGSIGKLYWFMPPSANLALRELGIVLFLSVVGLKSGGDFVNTLVNGEGLSWIGYGALITAVPLITVGILARMLAKMNYLTMCGMLAGSMTDPPALAFANNLHPTSGAAALSYATVYPLVMFLRIITPQLLAVLFWSIG | 3.27 ± 0.38 h | 5.33 ± 1.1 h | 11.4 ± 1.6 h |  | 5.7 ± 0.54 h | 6.35 h | 5.52 ± 0.89 h | 6.03 ± 0.39 h | 5.98 ± 0.39 h | 10.4 ± 0.3 h | 5.7 ± 0.059 h | 9.94 ± 1.5 h |
